Molecular target: 70S ribosomes from E. coli MRE600 (vacant) (E. coli)
Test: stopped-flow Rayleigh light scattering (325 nm) of 70S dissociation; 70S ribosomes (0.05 uM) rapidly mixed with increasing GTPBP6 with 0.5 mM GTP, phosphoenol pyruvate and pyruvate kinase; 50 mM Tris-HCl pH 7.5, 70 mM NH4Cl, 30 mM KCl, 7 mM MgCl2, 37°C; kapp against GTPBP6 concentration, linear fit: slope = association, intercept = dissociation rate constant, Kd from their ratio

- Kd: 700 nM
- koff: 0.09 s⁻¹
- kon: 130000 M⁻¹ s⁻¹
B1: GTPBP6Δ43 (purified recombinant GTPBP6) (domain or fragment)
chain: PGNLEGPWGGGRGLRADGGRSRTGDDEEEPEDADENAEEELLRGEPLLPAGTQRVCLVHPDVKWGPGKSQMTRAEWQVAEATALVHTLDGWSVVQTMVVSTKTPDRKLIFGKGNFEHLTEKIRGSPDITCVFLNVERMAAPTKKELEAAWGVEVFDRFTVVLHIFRCNARTKEARLQVALAEMPLHRSNLKRDVAHLYRGVGSRYIMGSGESFMQLQQRLLREKEAKIRKALDRLRKKRHLLRRQRTRREFPVISVVGYTNCGKTTLIKALTGDAAIQPRDQLFATLDVTAHAGTLPSRMTVLYVDTIGFLSQLPHGLIESFSATLEDVAHSDLILHVRDVSHPEAELQKCSVLSTLRGLQLPAPLLDSMVEVHNKVDLVPGYSPTEPNVVPVSALRGHGLQELKAELDAAVLKATGRQILTLRVRLAGAQLSWLYKEATVQEVDVIPEDGAADVRVIISNSAYGKFRKLFPG
